Series [1] has as its system Saccharomyces cerevisiae. Briefly: protein stability index of tFT-peptide fusion in wild type (PSI (0-1 scale)); higher = more stable (slower turnover). Particulars: genetic background: wild type.
Series [2] deals with Saccharomyces cerevisiae. The series can be described thus: protein stability index of tFT-peptide fusion in deletion strain of DOA10 (PSI (0-1 scale)); higher = more stable (slower turnover). As to the method:
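MPS profiling in S. cerevisiae of two library types built from selected 12-aa C-degron peptides (IN1, IN2, LN1, LN3, VN2, R1-R5, W1-W3, Atg1 and Rpa12 C-termini): saturation mutagenesis libraries and C-terminal +1 capping libraries (13 aa). Each peptide is fused to the C-terminus of a sfGFP-mCherry timer, after a GGGS linker. Cells are FACS-sorted into 8 mCherry/sfGFP bins and sequenced. PSI runs from 0 (unstable) to 1 (stable), measured once in wild type and in the das1Δ or doa10Δ background.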

In series [3] the test system is Saccharomyces cerevisiae. Briefly: protein stability index of tFT-peptide fusion (C-terminal peptide) (PSI (0-1 scale)); higher = more stable (slower turnover). As to the method: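 MPS profiling in S. cerevisiae of the tFT-X12 degron library: putative degron peptides plus stable controls, 12 aa, fused to the C-terminus of a sfGFP-mCherry timer. Cells are FACS-sorted into 8 mCherry/sfGFP bins and deep-sequenced. PSI runs from 0 (unstable) to 1 (stable). Backgrounds are wild type, das1Δ and doa10Δ at 30 °C, and wild type, das1Δ, cdc34-1 and cdc53-1 at 37 °C; 2-3 technical replicates each.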

For series [4], the system named is Saccharomyces cerevisiae. Described as above. The conditions noted are these: genetic background: wild type; temperature: 30 C.
The subject of series [5] is Saccharomyces cerevisiae. Briefly: protein stability index of tFT-peptide fusion in deletion strain of DAS1 (PSI (0-1 scale)); higher = more stable (slower turnover).

Data on 67 sequences can be found in the supplement of paper PMC10724198.

Several values for one entry are separate records, joined by “and”; a condition that tells them apart may be missing. Equal values may be shown once. ± gives the standard deviation of the averaged measurements.
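Throughout, for protein stability index of tFT-peptide fusion (C-terminal peptide): PSI is a weighted mean of sequencing reads over stability bins, variants kept only with over 10 reads, mCherry proximal and sfGFP distal, peptide attached via GGGS linker.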
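Throughout, for protein stability index of tFT-peptide fusion in deletion strain of DAS1: PSI is a weighted mean of each variant's read distribution over the sorted stability bins, computed only for variants having over 10 reads in total.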
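Throughout, for protein stability index of tFT-peptide fusion in deletion strain of DOA10: PSI per variant is the weighted mean of its sequencing read distribution over the sorted stability bins, counting only variants with over 10 reads summed across bins.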
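Throughout, for protein stability index of tFT-peptide fusion in wild type: PSI derived as read-weighted mean over the 8 sorting bins, only variants exceeding 10 total reads kept, mCherry placed adjacent to the peptide and sfGFP distal.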

Turning to AGTLPMCPLLLR, the values for the protein stability index in the series with Saccharomyces cerevisiae [1] and in the series with Saccharomyces cerevisiae [2] were 0.461 and 0.671, respectively.

Consider AIGLPMCPLLLR, for which the protein stability index is 0.297 in the series on Saccharomyces cerevisiae [1] and 0.653 in the series on Saccharomyces cerevisiae [2].

AITLPDCPLLLR: the protein stability index in the series on Saccharomyces cerevisiae [1] came to 0.437; with Saccharomyces cerevisiae [2], 0.711.

With AITLPHCPLLLR, the results for the protein stability index with Saccharomyces cerevisiae [1] and with Saccharomyces cerevisiae [2] were 0.264 and 0.713, respectively.

AITLPICPLLLR: the protein stability index was found to be 0.194 in the series on Saccharomyces cerevisiae [1] and 0.667 with Saccharomyces cerevisiae [2].

Consider AITLPMAPLLLR, for which the figures for the protein stability index in the series on Saccharomyces cerevisiae [1] and with Saccharomyces cerevisiae [2] were 0.253 and 0.666, respectively.

As to AITLPMCPILLR, the protein stability index in the series with Saccharomyces cerevisiae [1] came to 0.216; in the series with Saccharomyces cerevisiae [2], 0.619.

AITLPMCPLCLR: the protein stability index in the series with Saccharomyces cerevisiae [1] turned out to be 0.556; in the series on Saccharomyces cerevisiae [2] it was 0.702.

As for AITLPMCPLLLP, the protein stability index with Saccharomyces cerevisiae [1] came out at 0.627; in the series with Saccharomyces cerevisiae [2], 0.675.

With AITLPMCPLLLRL, the figures for the protein stability index with Saccharomyces cerevisiae [1] and with Saccharomyces cerevisiae [2] were 0.12 and 0.563, respectively.

Regarding AITLPMCPLLLRY, the values for the protein stability index with Saccharomyces cerevisiae [1] and with Saccharomyces cerevisiae [2] were 0.152 and 0.633, respectively.

Take AITLPMCPLWLR: the protein stability index in the series with Saccharomyces cerevisiae [1] was 0.239; with Saccharomyces cerevisiae [2], 0.695.

As to AITLPMCPNLLR, the protein stability index was 0.645 in the series on Saccharomyces cerevisiae [1] and 0.672 with Saccharomyces cerevisiae [2].

On to AITLPMCPTLLR, for which the protein stability index in the series on Saccharomyces cerevisiae [1] was found to be 0.581; in the series on Saccharomyces cerevisiae [2], 0.678.

Consider AITLPMNPLLLR, for which the protein stability index is 0.392 with Saccharomyces cerevisiae [1] and 0.685 with Saccharomyces cerevisiae [2].

Consider AITLPMWPLLLR, for which the protein stability index amounted to 0.124 in the series on Saccharomyces cerevisiae [1] and 0.673 with Saccharomyces cerevisiae [2].

In the case of AITLTMCPLLLR, the values for the protein stability index in the series with Saccharomyces cerevisiae [1] and in the series on Saccharomyces cerevisiae [2] were 0.386 and 0.667, respectively.

For AITLYMCPLLLR, the protein stability index in the series on Saccharomyces cerevisiae [1] stood at 0.309; with Saccharomyces cerevisiae [2], 0.628.

Turning to AITPPMCPLLLR, the protein stability index with Saccharomyces cerevisiae [1] was 0.458; in the series on Saccharomyces cerevisiae [2] it was 0.686.

With AKTLPMCPLLLR, the protein stability index in the series on Saccharomyces cerevisiae [1] turned out to be 0.352; with Saccharomyces cerevisiae [2], 0.672.

Consider ALTLPMCPLLLR, for which the protein stability index with Saccharomyces cerevisiae [1] is 0.21; in the series with Saccharomyces cerevisiae [2], 0.646.

Regarding AVTRLDAIYFRI, the values for the protein stability index in the series with Saccharomyces cerevisiae [1] and with Saccharomyces cerevisiae [2] were 0.317 and 0.696, respectively.

For the sequence AWTLPMCPLLLR, the protein stability index is 0.111 in the series on Saccharomyces cerevisiae [1] and 0.665 with Saccharomyces cerevisiae [2].

Turning to CLISLPILLFFR, the results for the protein stability index in the series with Saccharomyces cerevisiae [1] and in the series with Saccharomyces cerevisiae [2] were 0.0542 and 0.552, respectively.

On to CLRSLPILLFFR, for which the protein stability index in the series on Saccharomyces cerevisiae [1] was 0.0732; with Saccharomyces cerevisiae [2], 0.619.

As to CLSSLPILLFFR, the protein stability index in the series on Saccharomyces cerevisiae [1] amounted to 0.0943; in the series on Saccharomyces cerevisiae [2] it was 0.641.

On to CLVNLPILLFFR, for which the protein stability index with Saccharomyces cerevisiae [1] was 0.0622; in the series on Saccharomyces cerevisiae [2] it was 0.597.

For the sequence CLVSLGILLFFR, the protein stability index turned out to be 0.276 in the series on Saccharomyces cerevisiae [1] and 0.436 with Saccharomyces cerevisiae [2].

On to CLVSLPDLLFFR, for which the protein stability index came to 0.188 in the series on Saccharomyces cerevisiae [1] and 0.709 with Saccharomyces cerevisiae [2].

CLVSLPGLLFFR: the values for the protein stability index in the series on Saccharomyces cerevisiae [1] and in the series on Saccharomyces cerevisiae [2] were 0.126 and 0.656, respectively.

With CLVSLPHLLFFR, the protein stability index in the series with Saccharomyces cerevisiae [1] stood at 0.0749; in the series on Saccharomyces cerevisiae [2], 0.67.

CLVSLPILKFFR: the protein stability index was found to be 0.63 with Saccharomyces cerevisiae [1] and 0.666 with Saccharomyces cerevisiae [2].

On to CLVSLPILLFFA, for which the values for the protein stability index in the series on Saccharomyces cerevisiae [1] and with Saccharomyces cerevisiae [2] were 0.256 and 0.346, respectively.

On to CLVSLPILLFFRD, for which the figures for the protein stability index with Saccharomyces cerevisiae [1] and with Saccharomyces cerevisiae [2] were 0.103 and 0.594, respectively.

With CLVSLPILLFFRH, the figures for the protein stability index in the series with Saccharomyces cerevisiae [1] and in the series on Saccharomyces cerevisiae [2] were 0.0656 and 0.577, respectively.

In the case of CLVSLPILLFFRP, the protein stability index came to 0.068 in the series with Saccharomyces cerevisiae [1] and 0.563 with Saccharomyces cerevisiae [2].

As to CLVSLPILLFFRS, the protein stability index in the series on Saccharomyces cerevisiae [1] was 0.0709; with Saccharomyces cerevisiae [2], 0.533.

As for CLVSLPILLFLR, the results for the protein stability index with Saccharomyces cerevisiae [1] and with Saccharomyces cerevisiae [2] were 0.0512 and 0.564, respectively.

As for CLVSLPILLQFR, the protein stability index with Saccharomyces cerevisiae [1] worked out at 0.344; with Saccharomyces cerevisiae [2], 0.642.

For the sequence CLVSLPILRFFR, the protein stability index came out at 0.612 in the series with Saccharomyces cerevisiae [1] and 0.657 in the series with Saccharomyces cerevisiae [2].

Regarding CLVSLPILYFFR, the protein stability index with Saccharomyces cerevisiae [1] came out at 0.468; in the series on Saccharomyces cerevisiae [2], 0.605.

Turning to CLVSLPLLLFFR, the protein stability index in the series with Saccharomyces cerevisiae [1] came to 0.0578; with Saccharomyces cerevisiae [2] it was 0.606.

CLVSLPRLLFFR: the values for the protein stability index in the series on Saccharomyces cerevisiae [1] and with Saccharomyces cerevisiae [2] were 0.0729 and 0.664, respectively.

As to CNVSLPILLFFR, the protein stability index in the series with Saccharomyces cerevisiae [1] came out at 0.0527; in the series on Saccharomyces cerevisiae [2], 0.642.

Take CWVSLPILLFFR: the results for the protein stability index in the series on Saccharomyces cerevisiae [1] and with Saccharomyces cerevisiae [2] were 0.0534 and 0.54, respectively.

With ELYMCSVGCWFR, the protein stability index in the series with Saccharomyces cerevisiae [1] amounted to 0.388; in the series with Saccharomyces cerevisiae [2], 0.651.

In the case of RLIQPLPVQFLN, the protein stability index in the series on Saccharomyces cerevisiae [3] (genetic background: cdc34-1, temperature: 37 C) turned out to be 0.2752 ± 0.002; with Saccharomyces cerevisiae [3] (genetic background: cdc53-1, temperature: 37 C), 0.644 ± 0.089; with Saccharomyces cerevisiae [3] (genetic background: das1 deletion, temperature: 30 C) it was 0.616 ± 0.026; in the series with Saccharomyces cerevisiae [3] (genetic background: das1 deletion, temperature: 37 C) it was 0.732 ± 0.066; in the series with Saccharomyces cerevisiae [3] (genetic background: doa10 deletion, temperature: 30 C), 0.0708 ± 0.018; with Saccharomyces cerevisiae [3] (genetic background: wild type, temperature: 30 C), 0.0754 ± 0.0037. Also, the protein stability index with Saccharomyces cerevisiae [3] (genetic background: wild type, temperature: 37 C) was 0.0963 ± 0.012; in the series with Saccharomyces cerevisiae [1], 0.0747 and 0.0662; with Saccharomyces cerevisiae [4], 0.0935 ± 0.0062; in the series on Saccharomyces cerevisiae [5], 0.672 and 0.598.

VRGAVGGWRLVGL: the protein stability index was determined as 0.665 in the series on Saccharomyces cerevisiae [1] and 0.675 in the series with Saccharomyces cerevisiae [5].

In the case of VRGAVGGWRLVI, the protein stability index in the series on Saccharomyces cerevisiae [1] amounted to 0.215; with Saccharomyces cerevisiae [5], 0.685.

Regarding VRGAVGGWRLVM, the figures for the protein stability index in the series with Saccharomyces cerevisiae [1] and with Saccharomyces cerevisiae [5] were 0.321 and 0.661, respectively.

Take VRGAVGGWRLVP: the protein stability index in the series on Saccharomyces cerevisiae [1] turned out to be 0.436; in the series on Saccharomyces cerevisiae [5] it was 0.686.

With VRGAVGGWRLVT, the results for the protein stability index in the series with Saccharomyces cerevisiae [1] and in the series with Saccharomyces cerevisiae [5] were 0.184 and 0.675, respectively.

On to VRGAVGGWRLVY, for which the values for the protein stability index with Saccharomyces cerevisiae [1] and in the series on Saccharomyces cerevisiae [5] were 0.654 and 0.636, respectively.

On to VRGAVGGWRVVG, for which the protein stability index was 0.259 in the series with Saccharomyces cerevisiae [1] and 0.654 in the series on Saccharomyces cerevisiae [5].

With VRGAVGKWRLVG, the protein stability index in the series on Saccharomyces cerevisiae [1] worked out at 0.172; in the series with Saccharomyces cerevisiae [5], 0.68.

For the sequence VRGAVGMWRLVG, the protein stability index in the series on Saccharomyces cerevisiae [1] worked out at 0.169; in the series on Saccharomyces cerevisiae [5] it was 0.691.

For the sequence VRGAVQGWRLVG, the protein stability index in the series with Saccharomyces cerevisiae [1] came to 0.157; in the series on Saccharomyces cerevisiae [5], 0.682.

Take VRGDVGGWRLVG: the protein stability index in the series with Saccharomyces cerevisiae [1] is 0.108; in the series with Saccharomyces cerevisiae [5], 0.679.

With VRGKVGGWRLVG, the protein stability index is 0.129 in the series on Saccharomyces cerevisiae [1] and 0.67 in the series on Saccharomyces cerevisiae [5].

Regarding VRGLVGGWRLVG, the protein stability index amounted to 0.154 with Saccharomyces cerevisiae [1] and 0.678 in the series on Saccharomyces cerevisiae [5].

Turning to VRKAVGGWRLVG, the protein stability index amounted to 0.18 with Saccharomyces cerevisiae [1] and 0.665 in the series with Saccharomyces cerevisiae [5].

VRMAVGGWRLVG: the results for the protein stability index in the series with Saccharomyces cerevisiae [1] and in the series on Saccharomyces cerevisiae [5] were 0.132 and 0.672, respectively.

Regarding VRSAVGGWRLVG, the protein stability index turned out to be 0.141 in the series on Saccharomyces cerevisiae [1] and 0.685 in the series on Saccharomyces cerevisiae [5].

Take WLIQPLPVQFLN: the protein stability index is 0.0761 in the series on Saccharomyces cerevisiae [1] and 0.643 in the series with Saccharomyces cerevisiae [5].

With WRGAVGGWRLVG, the protein stability index with Saccharomyces cerevisiae [1] is 0.174; in the series on Saccharomyces cerevisiae [5] it was 0.655.

Consider YSLAASFWRVVG, for which the values for the protein stability index with Saccharomyces cerevisiae [1] and with Saccharomyces cerevisiae [5] were 0.128 and 0.67, respectively.

Regarding YTSCGYKFRTNN, the protein stability index in the series on Saccharomyces cerevisiae [1] was found to be 0.212; in the series on Saccharomyces cerevisiae [5], 0.691.
